According to paper PMC3256758:
Several values for one entry are separate records, joined by “and”; a condition that tells them apart may be missing. Identical values can stand only once. Like-named read-outs stand apart in the source and are kept apart here.

Experiments:
[1] = target: Pisum sativum (green pea) porphobilinogen synthase (PsPBGS) (Pisum sativum (green pea)); assay: native gel or EMSA
[2] = target: human porphobilinogen synthase, wild type (WT HsPBGS) (human) (UniProt P13716)
[3] = target: human porphobilinogen synthase, wild type (WT HsPBGS) (human) (UniProt P13716); remark: listed apart in the source
[4] = target: human porphobilinogen synthase, wild type (WT HsPBGS) (human) (UniProt P13716); remark: listed apart in the source

| stoichiometry N [1] | percent Phe12 (WT) chains in the hetero-octamers (Pool II) [2] | stoichiometry N [3] | stoichiometry N [4] | Substance |
| --- | --- | --- | --- | --- |
| 8 and 6 | – | – | – | Pisum sativum (green pea) porphobilinogen synthase (PsPBGS) (enzyme) |
| – | 70% | 6 and 8 | 6 and 8 | human porphobilinogen synthase, naturally occurring variant F12L (from UniProt P13716 1-330) (enzyme) |
